Measured values from US20220402979A1.

Legend:
[1] = biological target: recombinant human mis-disordered tau protein (tau151-391/4R) (human) (UniProt P10636); test: reference line in the plot 'Affinity against pathological tau', axis KD (nM); SPR (Example 10)
Human Tau2N4R = test: SPR; literature table, Jadhav et al. 2019; AFFINITY 'nd.'
Chain of Human Tau2N4R (single chain, as listed by the source limits assumed): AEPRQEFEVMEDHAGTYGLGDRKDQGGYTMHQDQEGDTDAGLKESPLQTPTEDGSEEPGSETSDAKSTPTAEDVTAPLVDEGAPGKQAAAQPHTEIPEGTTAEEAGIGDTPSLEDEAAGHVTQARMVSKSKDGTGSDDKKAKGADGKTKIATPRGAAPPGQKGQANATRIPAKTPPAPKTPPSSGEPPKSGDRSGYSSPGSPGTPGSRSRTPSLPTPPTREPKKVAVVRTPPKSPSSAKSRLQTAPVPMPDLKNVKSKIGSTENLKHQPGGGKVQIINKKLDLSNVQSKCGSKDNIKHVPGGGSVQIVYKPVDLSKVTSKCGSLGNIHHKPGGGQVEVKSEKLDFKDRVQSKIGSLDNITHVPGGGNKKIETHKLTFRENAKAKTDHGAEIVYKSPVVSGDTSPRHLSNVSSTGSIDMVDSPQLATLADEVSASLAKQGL

Chain of recombinant human mis-disordered tau protein (tau151-391/4R) (human) (P10636 468-708): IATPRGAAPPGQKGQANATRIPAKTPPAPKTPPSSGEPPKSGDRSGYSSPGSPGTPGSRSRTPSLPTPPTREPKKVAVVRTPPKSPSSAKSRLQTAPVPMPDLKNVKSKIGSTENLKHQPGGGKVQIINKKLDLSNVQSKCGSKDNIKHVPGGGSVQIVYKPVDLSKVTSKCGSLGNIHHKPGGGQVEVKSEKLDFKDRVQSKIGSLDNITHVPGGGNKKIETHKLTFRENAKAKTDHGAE

Substance | Kd [1] [nM] | AVIDITY (Human Tau2N4R) [pM]
AADvac2 | 0.4 | 
HJ8.5 (antibody) |  | 0.4
HJ9.3 (antibody) |  | 100
HJ9.4 (antibody) |  | 7000
